Molecular target: Right-Handed Coiled Coil-Nanotube (RHCC-NT) (Staphylothermus marinus)
Assay: crystal structure; RHCC-NT incubated with o-carborane at 50 °C for 1 week, 10 mg/mL in 10 mM TRIS pH 7.5, 154 mM NaCl; vapour diffusion; data at 100 K; 2.2 Å; molecular replacement with PDB 1YBK

With “Right-Handed Coiled Coil-Nanotube (RHCC-NT) (domain or fragment)” the stoichiometry N was 4.
